For assay [1], the target named is T1, CD3 on the surface of primary human T cells or Jurkat reporter cells (human, UniProt P07766 23-207).
T1 construct: whole, on cells; also called CD3 epsilon
The assay is described as follows: printed as Affinity CD3; flow cytometry titration on primary human T cells.

The target in assay [2] is T2, human 5T4 (trophoblast glycoprotein), endogenous on the cell surface (human, UniProt Q13641 32-420).
T2 construct: also called TPBG; 5T4 oncofetal antigen
T2 sequence: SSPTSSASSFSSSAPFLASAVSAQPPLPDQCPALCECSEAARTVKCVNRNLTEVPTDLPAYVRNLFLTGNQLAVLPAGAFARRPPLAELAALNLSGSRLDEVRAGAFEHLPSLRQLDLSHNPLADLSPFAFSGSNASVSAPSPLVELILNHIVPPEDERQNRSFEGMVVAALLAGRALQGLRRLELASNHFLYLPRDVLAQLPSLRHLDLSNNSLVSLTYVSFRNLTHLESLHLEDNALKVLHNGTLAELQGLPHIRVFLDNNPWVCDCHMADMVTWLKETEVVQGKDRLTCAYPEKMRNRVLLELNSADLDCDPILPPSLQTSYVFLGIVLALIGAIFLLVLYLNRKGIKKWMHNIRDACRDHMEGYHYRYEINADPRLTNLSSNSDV
Put plainly: printed as Affinity 5T4; apparent affinity from flow cytometry titration on Ovcar-5 cells. As for the experimental part:
Binding of exemplary 5T4-targeting constrained CD3 engaging constructs set forth in Table E3 to CD3 on the surface of primary T cells and 5T4 expressing cells (Ovcar-5) was assessed by flow cytometry. The T cells were primary T-cells that were negatively enriched from PBMCs isolated from healthy human donor leukopaks. Bound construct was detected with fluorophore-conjugated secondary antibodies specific for the human Fc (anti-human IgG APC secondary antibody) and binding was measured by flow cytometry. Cells incubated with secondary antibody only served as negative controls. The results, from flow cytometry histograms displaying normalized cell counts versus fluorescence at 200 nM of each construct, are shown in FIG. 4A (cx3253), FIG. 4B (cx3264), FIG. 4C (cx3497), FIG. 4D (cx3499), FIG. 4E (cx3547), FIG. 4F (cx3546), FIG. 4G (cx4224), FIG. 4H (cx4913), FIG. 4I (cx3265), […] (cx4912), FIG. 4K (cx3262), FIG. 4L (cx4911), and FIG. 4M (cx4910). […] However, as shown in the top right and bottom panels of each of the figures, the same constructs were not able to bind to T cells in isolation.
Table E4 summarizes the affinity of exemplary molecules for 5T4 or CD3, as determined from flow cytometry, in these studies.

A further assay deals with T3, hmc5T4.1.
T3 construct: the rest is mouse 5T4; also called chimeric hmc5T4.1; hybrid mouse/human 5T4 with human residues 1-173 of the extracellular domain; not shown: intracellular Citrine tag fused to the full coding region
T3 chain: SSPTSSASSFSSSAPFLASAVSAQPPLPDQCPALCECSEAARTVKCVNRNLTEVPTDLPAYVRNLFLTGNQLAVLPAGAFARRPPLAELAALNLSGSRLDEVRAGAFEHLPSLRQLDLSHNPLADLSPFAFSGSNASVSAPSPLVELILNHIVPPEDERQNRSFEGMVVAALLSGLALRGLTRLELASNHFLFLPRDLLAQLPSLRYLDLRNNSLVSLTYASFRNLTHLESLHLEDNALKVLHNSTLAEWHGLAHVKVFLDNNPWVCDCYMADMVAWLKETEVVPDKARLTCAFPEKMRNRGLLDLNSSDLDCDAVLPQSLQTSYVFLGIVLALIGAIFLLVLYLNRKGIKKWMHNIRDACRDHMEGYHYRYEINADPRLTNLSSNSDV
The assay is described as follows: flow cytometry on CHO cells transiently transfected with the 5T4 construct. An excerpt:
(§1) In order to determine the location of the epitope recognized by these sdAbs, various mouse:human chimeric 5T4 constructs were generated, wherein various portions of the murine extracellular domain of 5T4 were replaced with that of human 5T4. The constructs were generated by grafting a nucleic acid sequence encoding the specific region of human 5T4 into the cognate region of mouse 5T4 in a mammalian expression plasmid encoding the full 5T4 coding region (extracellular domain, transmembrane domain, intracellular domain) fused to an intracellular Citrine tag. […] CHO cells were transiently transfected with these constructs to enable cell surface expression, and binding was monitored by flow cytometry.

Assay [3] has as its target T4, human 5T4 construct (Hu), full 5T4 coding region fused to an intracellular Citrine tag, on transfected CHO … (human, UniProt Q13641 32-420).
T4 construct: also called fully human construct; not shown: intracellular Citrine tag
T4 sequence: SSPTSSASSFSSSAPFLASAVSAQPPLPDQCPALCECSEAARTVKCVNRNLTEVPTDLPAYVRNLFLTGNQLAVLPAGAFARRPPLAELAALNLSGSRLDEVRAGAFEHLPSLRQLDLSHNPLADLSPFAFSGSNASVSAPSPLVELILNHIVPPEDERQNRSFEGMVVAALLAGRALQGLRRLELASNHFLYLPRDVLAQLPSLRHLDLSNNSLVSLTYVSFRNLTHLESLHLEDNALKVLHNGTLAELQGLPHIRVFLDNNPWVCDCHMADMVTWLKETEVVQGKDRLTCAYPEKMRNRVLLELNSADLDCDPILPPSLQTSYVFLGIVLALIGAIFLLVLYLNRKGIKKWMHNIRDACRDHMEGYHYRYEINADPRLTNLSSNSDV
The description is as above.
Source text: as §1

The target in assay [4] is T5, murine 5T4 construct (Mu), full 5T4 coding region fused to an intracellular Citrine tag, on transfected CHO … (mouse, UniProt Q9Z0L0 32-426).
T5 construct: also called fully murine construct; mouse 5T4 antigen; not shown: intracellular Citrine tag
T5 sequence: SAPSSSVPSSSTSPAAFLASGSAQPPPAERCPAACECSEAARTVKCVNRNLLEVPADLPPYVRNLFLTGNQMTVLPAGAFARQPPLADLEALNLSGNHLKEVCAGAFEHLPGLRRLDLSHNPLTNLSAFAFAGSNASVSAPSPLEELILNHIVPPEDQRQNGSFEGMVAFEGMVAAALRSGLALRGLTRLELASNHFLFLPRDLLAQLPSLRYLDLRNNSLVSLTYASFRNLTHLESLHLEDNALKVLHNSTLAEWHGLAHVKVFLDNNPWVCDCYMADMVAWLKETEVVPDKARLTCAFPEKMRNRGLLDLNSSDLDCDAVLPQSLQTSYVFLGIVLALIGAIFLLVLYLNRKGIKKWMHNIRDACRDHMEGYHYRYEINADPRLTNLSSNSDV
Described as above.
Source text: as §1

In a further assay the target is T6, hmc5T4.2.
T6 construct: the rest is mouse 5T4; also called chimeric hmc5T4.2; not shown: intracellular Citrine tag fused to the full coding region
T6 chain: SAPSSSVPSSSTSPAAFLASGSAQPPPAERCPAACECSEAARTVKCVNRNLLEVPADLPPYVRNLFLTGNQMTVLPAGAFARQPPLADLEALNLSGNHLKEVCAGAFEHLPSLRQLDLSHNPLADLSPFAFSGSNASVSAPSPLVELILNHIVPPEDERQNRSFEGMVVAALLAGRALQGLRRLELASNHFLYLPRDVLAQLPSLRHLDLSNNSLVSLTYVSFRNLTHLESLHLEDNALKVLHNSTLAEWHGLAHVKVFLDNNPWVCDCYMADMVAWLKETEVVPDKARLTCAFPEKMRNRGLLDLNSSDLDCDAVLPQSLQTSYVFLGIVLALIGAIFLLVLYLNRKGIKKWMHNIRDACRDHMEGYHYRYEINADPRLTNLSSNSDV
The description is as above.
Source text: as §1

Assay [5] has as its target T2, human 5T4 (trophoblast glycoprotein), …. Put plainly: flow cytometry, sdAb-Fc on 5T4 expressing T47D cells.
Assay [6] concerns the target T4, human 5T4 construct (Hu), full 5T4 …. The assay is described as follows: flow cytometry on CHO cells transfected with human, mouse and chimeric 5T4 constructs.
Source text: as §1
Background: A flow cytometer gives signals particle by particle.

The target in assay [7] is T5, murine 5T4 construct (Mu), full 5T4 …. Put plainly: flow cytometry on CHO cells transfected with the fully murine 5T4 construct (Mu, FIG. 26C).
Source text: as §1

T1 sequence (P07766 23-207): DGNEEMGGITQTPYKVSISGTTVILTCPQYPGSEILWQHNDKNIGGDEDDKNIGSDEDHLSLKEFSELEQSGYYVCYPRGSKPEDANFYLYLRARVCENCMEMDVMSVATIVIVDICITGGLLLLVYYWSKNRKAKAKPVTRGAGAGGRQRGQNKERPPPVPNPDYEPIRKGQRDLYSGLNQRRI

B1: cx3264, 5T4-targeted constrained CD3 engaging construct with a 41BB binding domain (bispecific antibody)
chain 1: QVQLQESGGGLVQAGGSLRLSCAASRRPFSSKTMAWFRQTPGKEREFVAAVRWIGGATRYTDSVKGRFSISKDNAINTVYLQTNSLKSEDTAVYYCAAGQTWGTKFTDYSDWGQGTLVTVKPDKTHTCPPCPAPELLGGPSVFLFPPKPKDTLMISRTPEVTCVVVDVSHEDPEVKFNWYVDGVEVHNAKTKPREEQYNSTYRVVSVLTVLHQDWLNGKEYKCKVSNKALPAPIEKTISKAKGQPREPQVYTLPPCRDELTKNQVSLWCLVKGFYPSDIAVEWESNGQPENNYKTTPPVLDSDGSFFLYSKLTVDKSRWQQGNVFSCSVMHEALHNHYTQKSLSLSPTGGSGGGGIEPDIGGSGGSEVQLVESGGGLVQPGGSLRLSCAASGFTFNTYAMNWVRQAPGKCLEWVARIRSKYNNYATYYADSVKGRFTISRDDAKNTLYLQMSSLRAEDTAVYYCVRHGNFGNSYVSWFAYWGQGTLVTVKPQVQLQESGGGLVQAGGSLRLSCAASRRPFSSKTMAWFRQTPGKEREFVAAVRWIGGATRYTDSVKGRFSISKDNAINTVYLQTNSLKSEDTAVYYCAAGQTWGTKFTDYSDWGQGTLVTVKP
chain 2: not shown
B1: the Kd in assay [1] was greater than 200 nM; in assay [2], 0.145 nM.

B2: hz12E9v9 sdAb-Fc (Fc fusion)
chain: EVQLVESGGGEVQPGGSLRLSCAASGRPFSSKTMAWFRQAPGKEREFVAAVRWIGGATRYTESVKGRFTISRDNAKNTVYLQMSSLRAEDTAVYYCAAGQAWGTKFTDYSDWGQGTLVTVKP
notes: Humanized variant of 12E9; also called hz12E9v09; hz12E9v9-Fc; not shown: human Fc
As for B2, the results for the “EC50 (read off the curve)” value (with hmc5T4.1; in [3]) were roughly 0.8 nM and roughly 1 nM, respectively. In assay [4], the binding result is given as “no binding (tested: about 500 nM)”.

B3: hz16G10v11 sdAb-Fc (Fc fusion)
chain: EVQLVESGGGEVQPGGSLRLSCAASGRPFSSYAMGWFRQAPGKERETVAAVSRNAGSSYYAESVKGRFTISRDNAKNTVYLQMSSLRAEDTAVYYCAARSAAYSRSSETYTEKHDYTYWGQGTLVTVKP
notes: Humanized variant of 16G10, linked to a human Fc; also called hz16G10v11-Fc; cx7885; not shown: human Fc
Consider B3, for which the EC50 (read off the curve) (usually the concentration that produces a half-maximal response) was roughly 2 nM with hmc5T4.2 and roughly 3 nM in assay [3]. Also, the binding result in assay [4] is given as “no binding (tested: about 500 nM)”.

B4: hz14B5v17 sdAb-Fc (Fc fusion)
chain: EVQLVESGGGEVQPGGSLRLSCAASERPFGTYAMGWFRQAPGKERDLVAAVSRNAGASYYAESVKGRFTISRDNAKNTVYLQMSSLRAEDTAVYYCAARSAAYSRSSEVYTGKDEYYYWGQGTLVTVKP
notes: Humanized variant of 14B5, linked to a human Fc; not shown: human Fc
Turning to B4, the results for the binding result in assay [5], in assay [6] and in [7] were “binds”, “binds” and “no binding”, respectively.

Values taken from patent US20210340273A1 (INHLBRX, published 2021).
